Experimental data reported in the supplement of paper PMC7125110.
± gives the standard error. For some of these results: This sample holds only a part of the variants without activity.

B1: glmS ribozyme (parent)
chain: AUAAAAGCGCCAGAACUACAGAAAUGUAGUUGACGAGGAGGAGGUUUAUCGAAUUUUCGGCGGAUGCCUCCAAA

Key:
Details in all cases: with glucosamine-6-phosphate
[1] = variants of: B1; test: kcat; higher = faster cleavage; RNA array
Method in brief: (§1)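 kobs was derived by fitting per-tile medians to one- or two-exponential decays after normalising signals to baseline and to non-cleaving reference variants. Those signals came from barcoded ribozyme variants transcribed in situ by E. coli RNA polymerase on sequenced MiSeq chips, followed through a hybridised Cy3 probe at 37 °C and imaged over ~14 h. Glucosamine-6-phosphate (40 μM to 10 mM) in HEPES/KCl/Mg(OAc)2 buffer was flowed in. Weighted Michaelis–Menten fits across concentrations then gave kcat and KM.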

[2] = variants of: B1; test: KM; higher = weaker cofactor use; RNA array
Method in brief: as §1

[3] = variants of: B1; test: self-cleavage kobs at 2500 uM GlcN6P; higher = faster cleavage; RNA array
Method in brief: as §1

[4] = variants of: B1; test: self-cleavage kobs at 10000 uM GlcN6P; higher = faster cleavage; RNA array
Method in brief: as §1

[5] = variants of: B1; test: self-cleavage kobs at 40 uM GlcN6P; higher = faster cleavage; RNA array
Method in brief: as §1

[6] = variants of: B1; test: self-cleavage kobs at 160 uM GlcN6P; higher = faster cleavage; RNA array
Method in brief: as §1

[7] = variants of: B1; test: self-cleavage kobs at 640 uM GlcN6P; higher = faster cleavage; RNA array
Method in brief: as §1

| Variant | kcat [1] | KM [2] | self-cleavage kobs at 2500 uM GlcN6P [3] | self-cleavage kobs at 10000 uM GlcN6P [4] | self-cleavage kobs at 40 uM GlcN6P [5] | self-cleavage kobs at 160 uM GlcN6P [6] | self-cleavage kobs at 640 uM GlcN6P [7] |
| --- | --- | --- | --- | --- | --- | --- | --- |
| G37C C71U | 3.39e-05 ± 1.3e-06 s⁻¹ | 662 ± 140 µM | 2.55e-05 ± 9.5e-06 s⁻¹ | 3.23e-05 ± 8.2e-06 s⁻¹ |  |  |  |
| A53C G59U | < 1e-05 s⁻¹ |  |  |  |  |  |  |
| G9U G59A | < 1e-05 s⁻¹ |  | < 1e-05 s⁻¹ |  | < 1e-05 s⁻¹ |  |  |
| C11G G37U | 1.74e-05 ± 6.6e-06 s⁻¹ |  | < 1e-05 s⁻¹ | < 1e-05 s⁻¹ | < 1e-05 s⁻¹ |  |  |
| U55C A64C | 1.63e-05 ± 1.9e-06 s⁻¹ |  |  |  |  | < 1e-05 s⁻¹ |  |
| C16U C61U | 1.75e-05 ± 1.4e-06 s⁻¹ |  |  |  |  |  |  |
| C16G G66U | 0.000189 ± 5.3e-06 s⁻¹ | 2380 ± 200 µM | 9.99e-05 ± 1.6e-05 s⁻¹ | 0.000152 ± 1.3e-05 s⁻¹ |  |  | 3.85e-05 ± 1.1e-05 s⁻¹ |
| A6U C16G | 5.15e-05 ± 3.5e-06 s⁻¹ | 3290 ± 720 µM | 2.28e-05 ± 1e-05 s⁻¹ | 3.87e-05 ± 6.9e-06 s⁻¹ |  |  |  |
| G13U U46G A52C C67U C70G | 2.41e-05 ± 6.8e-06 s⁻¹ |  |  |  |  |  |  |
| A14C C58A | 0.000221 ± 1.4e-05 s⁻¹ | 3250 ± 500 µM | 0.000102 ± 1.6e-05 s⁻¹ | 0.000165 ± 1.7e-05 s⁻¹ |  |  | 3.29e-05 ± 1.1e-05 s⁻¹ |
| A15U A64U | 1.4e-05 ± 4.2e-06 s⁻¹ |  |  |  | < 1e-05 s⁻¹ | < 1e-05 s⁻¹ |  |
| A14G U69G | 0.000107 ± 2.2e-05 s⁻¹ |  | 0.000103 ± 2e-05 s⁻¹ | 0.000113 ± 1.8e-05 s⁻¹ | 8.24e-05 ± 1.9e-05 s⁻¹ | 5.73e-05 ± 1.7e-05 s⁻¹ | 0.000175 ± 3.5e-05 s⁻¹ |
| G7U C10U G37A C67A | 3.55e-05 ± 1.6e-05 s⁻¹ |  |  |  |  |  |  |
| G38U G51U | < 1e-05 s⁻¹ |  |  |  |  |  |  |
| A14C C16U | 0.00104 ± 0.00016 s⁻¹ | 922 ± 250 µM | 0.000655 ± 7.7e-05 s⁻¹ | 0.00118 ± 0.00016 s⁻¹ | 5.34e-05 ± 1.1e-05 s⁻¹ | 0.000144 ± 1.9e-05 s⁻¹ | 0.000451 ± 4.8e-05 s⁻¹ |
| G7U G38C | < 1e-05 s⁻¹ |  |  | < 1e-05 s⁻¹ | < 1e-05 s⁻¹ |  | < 1e-05 s⁻¹ |
| U45G U65A | 0.0042 ± 0.00043 s⁻¹ | 1990 ± 290 µM | 0.00264 ± 0.0004 s⁻¹ | 0.00326 ± 0.00059 s⁻¹ | 8.89e-05 ± 2.1e-05 s⁻¹ | 0.000296 ± 5.3e-05 s⁻¹ | 0.001 ± 0.00012 s⁻¹ |
| U31G C34A G60U C67A | < 1e-05 s⁻¹ |  |  |  |  |  |  |
| U46G U69A | 0.000212 ± 5.4e-05 s⁻¹ |  | 0.000306 ± 4.6e-05 s⁻¹ | 0.000143 ± 3.6e-05 s⁻¹ | 6.14e-05 ± 1.9e-05 s⁻¹ | 9.88e-05 ± 1.7e-05 s⁻¹ | 0.000212 ± 4.2e-05 s⁻¹ |
| A33C C58G | 1.09e-05 ± 3.4e-06 s⁻¹ |  |  |  |  |  |  |
| G29A U57A | 4e-05 ± 1.6e-06 s⁻¹ | 877 ± 180 µM |  | 3.64e-05 ± 1.7e-05 s⁻¹ |  |  |  |
